Source: patent US20260184782A1 (TWIST BIOSCIENCE, published 2026)

T1: human TIGIT-Fc (human, UniProt Q495A1 22-141, limits assumed)
T1 construct: not shown: Fc; not described
T1 sequence (looked up): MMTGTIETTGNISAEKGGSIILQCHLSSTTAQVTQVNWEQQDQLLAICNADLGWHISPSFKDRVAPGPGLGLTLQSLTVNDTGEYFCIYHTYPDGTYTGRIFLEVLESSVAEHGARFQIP


target: T1, human TIGIT-Fc; test: CD155 competition ELISA, single point; also: test concentration or dose not given here
Procedure: TIGIT/CD155 inhibition of VHH-Fcs were assessed using an ELISA assay (Table 10B). Briefly, human TIGIT-Fc was coated on a plate & then incubated with VHH-Fcs and human CD155-biotin. Bound CD155-biotin was detected using a streptavidin-HRP conjugate visualized with TMB. Strong inhibitors from the single point screen were titrated to determine EC50 (Table 10C).

| OD (450 nm) [OD] | Binder |
| --- | --- |
| 0.622 | TIGIT-SC12 (Fc fusion, VHH-Fc) VHH: EVQLVESGGGLVQPGGSLRLSCAASGRTFSAYGMGWFRQAPGKEREFVAAITPSSRTTYYADSVKGRFTISADNSKNTAYLQMNSLKPEDTAVYYCAKDNWGEWLMPWWGQGTLVTVSS |
| 0.746 | TIGIT-SC19 (Fc fusion, VHH-Fc) VHH: EVQLVESGGGLVQPGGSLRLSCAASGRTYDAMGWFRQAPGKEREWVASVLRGGYTWYADSVKGRFTISADNSKNTAYLQMNSLKPEDTAVYYCARDVDYRFDSWGQGTLVTVSS |
| 0.735 | TIGIT-SC7 (Fc fusion, VHH-Fc) VHH: EVQLVESGGGLVQPGGSLRLSCAASGRSFSMYVMGWFRQAPGKEREGVSFISGSDGSTLYADSVKGRFTISADNSKNTAYLQMNSLKPEDTAVYYCARGSIAARPVFFDYWGQGTLVTVSS |
| 0.649 | TIGIT-SC1 (Fc fusion, VHH-Fc) VHH: EVQLVESGGGLVQPGGSLRLSCAASGFTLNDYAMGWFRQAPGKERELVAWIARYDGSTLYADSVKGRFTISADNSKNTAYLQMNSLKPEDTAVYYCARVDWALNAAPFDYWGQGTLVTVSS |
| 0.756 | TIGIT-SC10 (Fc fusion, VHH-Fc) VHH: EVQLVESGGGLVQPGGSLRLSCAASGNTFSGGFMGWFRQAPGKEREWVASVLRGGYTWYADSVKGRFTISADNSKNTAYLQMNSLKPEDTAVYYCASDPWGTRYFDHWGQGTLVTVSS |
| 0.59 | TIGIT-SC175 (Fc fusion, VHH-Fc) VHH: EVQLVESGGGLVQPGGSLRLSCAASGNTFSGGFMGWFRQAPGKEREWVASVLRGGYTWYADSVKGRFTISADNSKNTAYLQMNSLKPEDTAVYYCTTDALRFLEWPWWGQGTLVTVSS |
| 0.607 | TIGIT-SC21 (Fc fusion, VHH-Fc) VHH: EVQLVESGGGLVQPGGSLRLSCAASGNTFSGGFMGWFRQAPGKEREWVASVLRGGYTWYADSVKGRFTISADNSKNTAYLQMNSLKPEDTAVYYCARGGAGSDWFGPWGQGTLVTVSS |
| 0.343 | TIGIT-SC61 (Fc fusion, VHH-Fc) VHH: EVQLVESGGGLVQPGGSLRLSCAASGNTFSGGFMGWFRQAPGKEREWVASVLRGGYTWYADSVKGRFTISADNSKNTAYLQMNSLKPEDTAVYYCTRGDTAMATFDYWGQGTLVTVSS |
| 0.578 | TIGIT-SC173 (Fc fusion, VHH-Fc) VHH: EVQLVESGGGLVQPGGSLRLSCAASGFTFSPSWMGWFRQAPGKEREWVASVLRGGYTWYADSVKGRFTISADNSKNTAYLQMNSLKPEDTAVYYCATERRLGVWGQGTLVTVSS |
| 0.469 | TIGIT-SC25 (Fc fusion, VHH-Fc) VHH: EVQLVESGGGLVQPGGSLRLSCAASGNTFSGGFMGWFRQAPGKEREWVASVLRGGYTWYADSVKGRFTISADNSKNTAYLQMNSLKPEDTAVYYCTTVGYGDYWGQGTLVTVSS |
| 0.571 | TIGIT-SC171 (Fc fusion, VHH-Fc) VHH: EVQLVESGGGLVQPGGSLRLSCAASGFTFDRSWMGWFRQAPGKEREWVASVLRGGYTWYADSVKGRFTISADNSKNTAYLQMNSLKPEDTAVYYCATERRLGVWGQGTLVTVSS |
| 0.341 | TIGIT-SC42 (Fc fusion, VHH-Fc) VHH: EVQLVESGGGLVQPGGSLRLSCAASGNTFSGGFMGWFRQAPGKEREWVATVLRGGYTWYADSVKGRFTISADNSKNTAYLQMNSLKPEDTAVYYCASGGFLASWGQGTLVTVSS |
| 0.756 | TIGIT-SC9 (Fc fusion, VHH-Fc) VHH: EVQLVESGGGLVQPGGSLRLSCAASGNTFSGGFMGWFRQAPGKEREWVASVLRGGYTWYADSVKGRFTISADNSKNTAYLQMNSLKPEDTAVYYCVNGYSYGRDYWGQGTLVTVSS |
| 0.564 | TIGIT-SC5 (Fc fusion, VHH-Fc) VHH: EVQLVESGGGLVQPGGSLRLSCAASGFAFGDSWMGWFRQAPGKEREWVASVLRGGYTWYADSVKGRFTISADNSKNTAYLQMNSLKPEDTAVYYCARESEGWFDPWGQGTLVTVSS |
| 0.424 | TIGIT-SC23 (Fc fusion, VHH-Fc) VHH: EVQLVESGGGLVQPGGSLRLSCAASGFTLSSNWMGWFRQAPGKEREWVASVLRGGYTWYADSVKGRFTISADNSKNTAYLQMNSLKPEDTAVYYCARERLGWFDPWGQGTLVTVSS |
| 0.5 | TIGIT-SC183 (Fc fusion, VHH-Fc) VHH: EVQLVESGGGLVQPGGSLRLSCAASGFAFGDSWMGWFRQAPGKEREWVASVLRGGYTWYADSVKGRFTISADNSKNTAYLQMNSLKPEDTAVYYCAKDRSYSFDYWGQGTLVTVSS |
| 0.576 | TIGIT-SC15 (Fc fusion, VHH-Fc) VHH: EVQLVESGGGLVQPGGSLRLSCAASGSILSFNHIGWFRQAPGKEREGVAWIARYDGSTLYADSVKGRFTISADNSKNTAYLQMNSLKPEDTAVYYCARARGGYVDYWGQGTLVTVSS |

| OD (450 nm) [OD] | Binder |
| --- | --- |
| 0.324 | TIGIT-SC165 (Fc fusion, VHH-Fc) VHH: EVQLVESGGGLVQPGGSLRLSCAASGNTFSGGFMGWFRQAPGKEREWVASVLRGGYTWYADSVKGRFTISADNSKNTAYLQMNSLKPEDTAVYYCTTEGSGWRNWGQGTLVTVSS |
| 0.486 | TIGIT-SC189 (Fc fusion, VHH-Fc) VHH: EVQLVESGGGLVQPGGSLRLSCAASGNTFSGGFMGWFRQAPGKEREWVASVLRGGYTWYADSVKGRFTISADNSKNTAYLQMNSLKPEDTAVYYCVTDVGAPDYWGQGTLVTVSS |
| 0.363 | TIGIT-SC164 (Fc fusion, VHH-Fc) VHH: EVQLVESGGGLVQPGGSLRLSCAASGFTFDRSWMGWFRQAPGKEREFVASVLRGGYTWYADSVKGRFTISADNSKNTAYLQMNSLKPEDTAVYYCTTEGSGWRNWGQGTLVTVSS |
| 0.341 | TIGIT-SC37 (Fc fusion, VHH-Fc) VHH: EVQLVESGGGLVQPGGSLRLSCAASGNTFSGGFMGWFRQAPGKEREWVASVLRGGYTWYADSVKGRFTISADNSKNTAYLQMNSLKPEDTAVYYCVFGGVWQDVWGQGTLVTVSS |
| 0.553 | TIGIT-SC17 (Fc fusion, VHH-Fc) VHH: EVQLVESGGGLVQPGGSLRLSCAASGFDFSVSWMGWFRQAPGKEREWVASVLRGGYTWYADSVKGRFTISADNSKNTAYLQMNSLKPEDTAVYYCAREGSWFDYWGQGTLVTVSS |
| 0.579 | TIGIT-SC4 (Fc fusion, VHH-Fc) VHH: EVQLVESGGGLVQPGGSLRLSCAASGSIDRINAMGWFRQATGKEREWVASVLRGGYTWYADSVKGRFTISADNSKNTAYLQMNSLKPEDTAVYYCARDSYSTSFWFDPWGQGTLVTVSS |
| 0.407 | TIGIT-SC2 (Fc fusion, VHH-Fc) VHH: EVQLVESGGGLVQPGGSLRLSCAASGFTLSSNWMGWFRQAPGKEREMVAAIDWSGGSALYADSVKGRFTISADNSKNTAYLQMNSLKPEDTAVYYCAKDALSNSARFDHWGQGTLVTVSS |
| 0.726 | TIGIT-SC20 (Fc fusion, VHH-Fc) VHH: EVQLVESGGGLVQPGGSLRLSCAASGNTFSGGFMGWFRQAPGKEREWVASVLRGGYTWYADSVKGRFTISADNSKNTAYLQMNSLKPEDTAVYYCATPRGYWGQGTLVTVSS |
| 0.666 | TIGIT-SC13 (Fc fusion, VHH-Fc) VHH: EVQLVESGGGLVQPGGSLRLSCAASGRTFSFMGWFRQAPGKEREWVASVLRGGYTWYADSVKGRFTISADNSKNTAYLQMNSLKPEDTAVYYCATESMDYWGQGTLVTVSS |
| 0.748 | TIGIT-SC3 (Fc fusion, VHH-Fc) VHH: EVQLVESGGGLVQPGGSLRLSCAASGTFQRINAMGWFRQAPGKEREFVSTINWSGSNTYYADSVKGRFTISADNSKNTAYLQMNSLKPEDTAVYYCASSYSSSSGLGDIWGQGTLVTVSS |
| 0.61 | TIGIT-SC14 (Fc fusion, VHH-Fc) VHH: EVQLVESGGGLVQPGGSLRLSCAASGSISSIHAMGWFRQAPGKEREFVATISRSGVGTFYADSVKGRFTISADNSKNTAYLQMNSLKPEDTAVYYCASSYSSSSGLGDIWGQGTLVTVSS |
| 0.552 | TIGIT-SC22 (Fc fusion, VHH-Fc) VHH: EVQLVESGGGLVQPGGSLRLSCAASGFTLENNMMGWFRQAPGKEREMVAAISWSGGSALYADSVKGRFTISADNSKNTAYLQMNSLKPEDTAVYYCARGDGYSYGNFDYWGQGTLVTVSS |
| 0.471 | TIGIT-SC16 (Fc fusion, VHH-Fc) VHH: EVQLVESGGGLVQPGGSLRLSCAASGTTFSSAAMGWFRQAPGKEREWVASVLRGGYTWYADSVKGRFTISADNSKNTAYLQMNSLKPEDTAVYYCARDPVELGDYWGQGTLVTVSS |
| 0.558 | TIGIT-SC6 (Fc fusion, VHH-Fc) VHH: EVQLVESGGGLVQPGGSLRLSCAASGNTFSGGFMGWFRQAPGKEREWVASVLRGGYTWYADSVKGRFTISADNSKNTAYLQMNSLKPEDTAVYYCAISPVAWHAKFDSWGQGTLVTVSS |
| 0.716 | TIGIT-SC18 (Fc fusion, VHH-Fc) VHH: EVQLVESGGGLVQPGGSLRLSCAASGFSLDYYAMGWFRQAPGKEREVVAIIDTNGDNTLYADSVKGRFTISADNSKNTAYLQMNSLKPEDTAVYYCARGRGYGDYVGAYWGQGTLVTVSS |
| 0.817 | TIGIT-SC8 (Fc fusion, VHH-Fc) VHH: EVQLVESGGGLVQPGGSLRLSCAASGFAFSSYAMGWFRQAPGKEREFVARITWNGGSAYYADSVKGRFTISADNSKNTAYLQMNSLKPEDTAVYYCAAGATGWFDPWGQGTLVTVSS |
